125 sequences from the supplement of paper PMC9112550, “Optimization of the antimicrobial peptide Bac7 by deep mutational scanning” (BMC Biology, 2022) can be followed below.
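Note: peptides expressed intracellularly from a pBAD plasmid library in pooled LB shake-flask culture, induced with 0.3% L-arabinose, DNA abundance read by NGS, three biological replicates, DESeq2 with apeglm shrinkage.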

For this series, the system named is Escherichia coli TOP10. Description: shrunken log2 fold change of peptide-encoding DNA abundance (4.5 h post-induction vs induction); higher = less antimicrobial activity (less host growth inhibition). To be noted: time post-induction: 4.5 h; library: site-saturation at positions 5, 18, 19, 20.
Regarding RRIRNRPPRLPRPRPRPINLPRP, the “shrunken log2 fold change” value was -0.176. Under RRIRSRPPRLPRPRPRPDGTPRP stands -0.199.

As to RRIRPRPPRLPRPRPRPNMWPRP, the “shrunken log2 fold change” value was -0.084. With RRIRFRPPRLPRPRPRPDAMPRP the figure was 0.138. With RRIRQRPPRLPRPRPRPSDSPRP the figure was -0.0885. Under RRIRQRPPRLPRPRPRPLMRPRP stands 0.345; under RRIRMRPPRLPRPRPRPHMPPRP, -0.206. Turning to RRIRMRPPRLPRPRPRPQVWPRP, the “shrunken log2 fold change” value was 0.399. Turning to RRIRARPPRLPRPRPRPECWPRP, the “shrunken log2 fold change” value came to 1.97. With RRIRHRPPRLPRPRPRPDKYPRP, the “shrunken log2 fold change” value was -0.146. With RRIRTRPPRLPRPRPRPRHAPRP the figure was 0.329. Under RRIRPRPPRLPRPRPRPCSNPRP stands 0.137.

For the sequence RRIRARPPRLPRPRPRPVKGPRP, the “shrunken log2 fold change” value was -0.00146.

For RRIRSRPPRLPRPRPRPYAAPRP, the “shrunken log2 fold change” value is -0.0585.

For the sequence RRIRIRPPRLPRPRPRPHQWPRP, the “shrunken log2 fold change” value is -0.246. For RRIRHRPPRLPRPRPRPLFFPRP, the “shrunken log2 fold change” value was -0.171. Under RRIRTRPPRLPRPRPRPGGLPRP stands -0.0407; under RRIRNRPPRLPRPRPRPLYPPRP, -0.586; under RRIRSRPPRLPRPRPRPNQYPRP, 0.2.

Take RRIRYRPPRLPRPRPRPLWYPRP: the “shrunken log2 fold change” value was -0.824.

Take RRIRMRPPRLPRPRPRPAQVPRP: the “shrunken log2 fold change” value was -0.0213. Under RRIRNRPPRLPRPRPRPCAGPRP stands -0.123; under RRIRVRPPRLPRPRPRPYNTPRP, -0.326.

Take RRIRVRPPRLPRPRPRPPEYPRP: the “shrunken log2 fold change” value is -0.225. With RRIRTRPPRLPRPRPRPSLAPRP the figure was 0.105; with RRIRQRPPRLPRPRPRPCCHPRP, -0.197; with RRIRRRPPRLPRPRPRPQMTPRP, 0.238. As for RRIRNRPPRLPRPRPRPMFYPRP, the “shrunken log2 fold change” value was -0.166. Under RRIRHRPPRLPRPRPRPDIRPRP stands 0.0226; under RRIRRRPPRLPRPRPRPMEEPRP, 0.0408. Under RRIRGRPPRLPRPRPRPGYWPRP stands 1.88; under RRIRPRPPRLPRPRPRPATMPRP, 0.0647; under RRIRWRPPRLPRPRPRPRSGPRP, 0.345. Under RRIRTRPPRLPRPRPRPWRKPRP stands -0.262. RRIRTRPPRLPRPRPRPIFPPRP: the “shrunken log2 fold change” value came to 0.166.

Consider RRIRNRPPRLPRPRPRPCQEPRP, for which the “shrunken log2 fold change” value was 0.15. Under RRIRRRPPRLPRPRPRPKIAPRP stands 0.147; under RRIRYRPPRLPRPRPRPRKVPRP, -0.208.

Take RRIRKRPPRLPRPRPRPKSHPRP: the “shrunken log2 fold change” value amounted to 0.0104. As for RRIRKRPPRLPRPRPRPPFLPRP, the “shrunken log2 fold change” value is -0.0158. Under RRIRGRPPRLPRPRPRPTKLPRP stands 0.38. Take RRIRKRPPRLPRPRPRPPEFPRP: the “shrunken log2 fold change” value worked out at 0.0984. With RRIRIRPPRLPRPRPRPHYFPRP the figure was -0.173; with RRIRGRPPRLPRPRPRPHIGPRP, 0.109. Under RRIRKRPPRLPRPRPRPQTEPRP stands -0.0229; under RRIRCRPPRLPRPRPRPGRMPRP, 0.141; under RRIRLRPPRLPRPRPRPQNHPRP, -0.683. Under RRIRCRPPRLPRPRPRPRIIPRP stands -0.443. Take RRIRLRPPRLPRPRPRPMQYPRP: the “shrunken log2 fold change” value was -0.208. Under RRIRERPPRLPRPRPRPVAHPRP stands 0.0475; under RRIRNRPPRLPRPRPRPVANPRP, -0.0653. Take RRIRPRPPRLPRPRPRPFVDPRP: the “shrunken log2 fold change” value is -0.319. With RRIRFRPPRLPRPRPRPYIVPRP the figure was -0.97; with RRIRVRPPRLPRPRPRPELCPRP, 0.0749; with RRIRHRPPRLPRPRPRPFERPRP, -0.128.

With RRIRFRPPRLPRPRPRPYHMPRP, the “shrunken log2 fold change” value is -0.128. For RRIRCRPPRLPRPRPRPAQKPRP, the “shrunken log2 fold change” value is -0.118. Under RRIRARPPRLPRPRPRPAACPRP stands 0.754; under RRIRFRPPRLPRPRPRPWTEPRP, -0.119.

For the sequence RRIRYRPPRLPRPRPRPTDMPRP, the “shrunken log2 fold change” value was found to be 0.00219. Take RRIRGRPPRLPRPRPRPCAFPRP: the “shrunken log2 fold change” value worked out at 2.03. Take RRIRERPPRLPRPRPRPRARPRP: the “shrunken log2 fold change” value worked out at 0.233.

For the sequence RRIRQRPPRLPRPRPRPRQWPRP, the “shrunken log2 fold change” value amounted to 0.254.

Regarding RRIRSRPPRLPRPRPRPARAPRP, the “shrunken log2 fold change” value turned out to be 0.985. Under RRIRFRPPRLPRPRPRPPHSPRP stands 0.386. With RRIRNRPPRLPRPRPRPGHMPRP the figure was -0.147. With RRIRERPPRLPRPRPRPYEKPRP the figure was -0.0219. Turning to RRIRGRPPRLPRPRPRPFTVPRP, the “shrunken log2 fold change” value was -0.31.

For the sequence RRIRQRPPRLPRPRPRPIKVPRP, the “shrunken log2 fold change” value is 0.0441. With RRIRMRPPRLPRPRPRPKHMPRP the figure was 0.171; with RRIRGRPPRLPRPRPRPPTHPRP, 0.617. With RRIRLRPPRLPRPRPRPTWCPRP the figure was 0.107. With RRIRDRPPRLPRPRPRPWVPPRP the figure was 0.164. With RRIRHRPPRLPRPRPRPVRFPRP, the “shrunken log2 fold change” value came to 0.106. With RRIRLRPPRLPRPRPRPRAHPRP the figure was 0.244; with RRIRMRPPRLPRPRPRPCRFPRP, -0.0352. Under RRIRSRPPRLPRPRPRPIGPPRP stands -0.0999; under RRIRKRPPRLPRPRPRPDSDPRP, 0.123. With RRIRNRPPRLPRPRPRPMVKPRP the figure was -0.00408; with RRIRTRPPRLPRPRPRPIIQPRP, -0.487; with RRIRTRPPRLPRPRPRPEIDPRP, 0.0426.

Take RRIRIRPPRLPRPRPRPHNWPRP: the “shrunken log2 fold change” value was -0.239. Under RRIRTRPPRLPRPRPRPNTMPRP stands -0.675; under RRIRTRPPRLPRPRPRPYAHPRP, -0.239. With RRIRQRPPRLPRPRPRPHTYPRP the figure was -0.753. On to RRIRFRPPRLPRPRPRPDFMPRP, for which the “shrunken log2 fold change” value is -0.27.

As for RRIRKRPPRLPRPRPRPYLTPRP, the “shrunken log2 fold change” value was -0.413. With RRIRARPPRLPRPRPRPKCGPRP the figure was 0.432; with RRIRMRPPRLPRPRPRPEWIPRP, -0.0024; with RRIRNRPPRLPRPRPRPQVKPRP, 0.0117. With RRIRQRPPRLPRPRPRPADFPRP the figure was -0.193; with RRIRKRPPRLPRPRPRPPGTPRP, 0.794. With RRIRCRPPRLPRPRPRPYPPPRP the figure was -0.631; with RRIRVRPPRLPRPRPRPEEHPRP, -0.0681. On to RRIRLRPPRLPRPRPRPTQGPRP, for which the “shrunken log2 fold change” value was 0.852. With RRIRIRPPRLPRPRPRPYFSPRP the figure was -0.382.

Take RRIRRRPPRLPRPRPRPLKLPRP: the “shrunken log2 fold change” value is -0.0808. With RRIRRRPPRLPRPRPRPSVAPRP the figure was 0.478. With RRIRWRPPRLPRPRPRPKNYPRP the figure was -0.152; with RRIRCRPPRLPRPRPRPRWDPRP, -0.128.

As to RRIRQRPPRLPRPRPRPKRYPRP, the “shrunken log2 fold change” value is -0.138. Under RRIRGRPPRLPRPRPRPEPMPRP stands 0.648. With RRIRKRPPRLPRPRPRPCRFPRP the figure was 0.0338. With RRIRSRPPRLPRPRPRPCRSPRP the figure was -0.0435. Take RRIRERPPRLPRPRPRPEWRPRP: the “shrunken log2 fold change” value was 0.334. Consider RRIRQRPPRLPRPRPRPDQQPRP, for which the “shrunken log2 fold change” value was found to be 0.0334. Under RRIRMRPPRLPRPRPRPVANPRP stands 0.331; under RRIRERPPRLPRPRPRPDIHPRP, -0.512; under RRIRCRPPRLPRPRPRPALWPRP, 0.621. With RRIRDRPPRLPRPRPRPHLHPRP the figure was -0.0995; with RRIRKRPPRLPRPRPRPADTPRP, 1.03.

Take RRIRSRPPRLPRPRPRPQDMPRP: the “shrunken log2 fold change” value is 0.035. With RRIRNRPPRLPRPRPRPIDLPRP the figure was -0.0431. With RRIRFRPPRLPRPRPRPMYMPRP the figure was -0.183; with RRIRKRPPRLPRPRPRPCGSPRP, -0.0192; with RRIRPRPPRLPRPRPRPALDPRP, 0.628. Regarding RRIRARPPRLPRPRPRPDVYPRP, the “shrunken log2 fold change” value turned out to be 0.152.

RRIRRRPPRLPRPRPRPPMSPRP: the “shrunken log2 fold change” value was determined as 0.142. In the case of RRIRQRPPRLPRPRPRPSQGPRP, the “shrunken log2 fold change” value turned out to be 4.77e-05. Regarding RRIRLRPPRLPRPRPRPKTFPRP, the “shrunken log2 fold change” value was -0.201.

With RRIRSRPPRLPRPRPRPQDCPRP, the “shrunken log2 fold change” value is -0.261. With RRIRQRPPRLPRPRPRPIPIPRP the figure was -0.104. With RRIRERPPRLPRPRPRPYTFPRP the figure was -0.282; with RRIRVRPPRLPRPRPRPGRIPRP, 0.0466.

Consider RRIRGRPPRLPRPRPRPVLPPRP, for which the “shrunken log2 fold change” value is 0.383.
